Literature values in patent publication US20240285756A1, “METHOD AND COMPOSITION FOR INDUCING TOLERANCE” (ZELARION MALTA LIMITED, priority 2021, published 2024).

Biological target: T1, CD2 (Homo sapiens, UniProt P06729)
T1 sequence (P06729 25-351): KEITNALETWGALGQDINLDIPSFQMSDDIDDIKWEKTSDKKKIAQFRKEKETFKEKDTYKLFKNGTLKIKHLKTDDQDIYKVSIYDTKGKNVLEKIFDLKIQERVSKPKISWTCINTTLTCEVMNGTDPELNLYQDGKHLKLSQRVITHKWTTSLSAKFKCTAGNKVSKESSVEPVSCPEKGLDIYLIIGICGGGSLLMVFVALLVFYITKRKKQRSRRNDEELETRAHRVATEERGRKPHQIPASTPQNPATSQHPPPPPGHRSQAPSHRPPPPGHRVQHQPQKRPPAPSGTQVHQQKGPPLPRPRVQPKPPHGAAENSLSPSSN
Details: literature value, Branco et al., Transplantation 1999; assay not further specified

IC50: ~1 nM
B1: siplizumab: humanized IgG1 kappa monoclonal antibody against human CD2; humanized version of rat antibody BTI-322 (antibody, V domains shown)
VH: QVQLVQSGAEVQRPGASVKVSCKASGYIFTEYYMYWVRQAPGQGLELVGRIDPEDGSIDYVEKFKKKVTLTADTSSSTAYMELSSLTSDDTAVYYCARGKFNYRFAYWGQGTLVTVSS
VL: DVVMTQSPPSLLVTLGQPASISCRSSQSLLHSSGNTYLNWLLQRPGQSPQPLIYLVSKLESGVPDRFSGSGSGTDFTLKISGVEAEDVGVYYCMQFTHYPYTFGQGTKLEIK
